# Experimental data as given in publication PMC7033129, “Structural basis for substrate specificity and catalysis of α1,6-fucosyltransferase” (Nature Communications, 2020).
# Molecular target: the molecule itself
# Experiment: crystal structure; C2 crystals of HsFUT8 with 5 mM GDP and 5 mM G0, 1.95 Å; two molecules in the asymmetric unit, each forming a dimer with a molecule of the neighbouring asymmetric unit
protein,measurement,value
"human α1,6-fucosyltransferase (HsFUT8), residues 68–575 (enzyme, UniProt Q9BYC5 68-575, looked up, α1,6-fucosyltransferase (FUT8), human, amino acid residues 68–575 (coiled-coil, catalytic and SH3 domains); Expressed from pHLSec-12His-GFP-TEV-HsFUT8 after the vector's secretion signal; His-GFP cut off with TEV protease before crystallisation; Crystallised with GDP and the N-glycan G0; source: HEK293F, transfected, secreted into the supernatant, purified (His-Trap, TEV cleavage, second …)) RIPEGPIDQGPAIGRVRVLEEQLVKAKEQIENYKKQTRNGLGKDHEILRRRIENGAKELWFFLQSELKKLKNLEGNELQRHADEFLLDLGHHERSIMTDLYYLSQTDGAGDWREKEAKDLTELVQRRITYLQNPKDCSKAKKLVCNINKGCGYGCQLHHVVYCFMIAYGTQRTLILESQNWRYATGGWETVFRPVSETCTDRSGISTGHWSGEVKDKNVQVVELPIVDSLHPRPPYLPLAVPEDLADRLVRVHGDPAVWWVSQFVKYLIRPQPWLEKEIEEATKKLGFKHPVIGVHVRRTDKVGTEAAFHPIEEYMVHVEEHFQLLARRMQVDKKRVYLATDDPSLLKEAKTKYPNYEFISDNSISWSAGLHNRYTENSLRGVILDIHFLSQADFLVCTFSSQVCRVAYEIMQTLHPDASANFHSLDDIYYFGGQNAHNQIAIYAHQPRTADEIPMEPGDIIGVAGNHWDGYSKGVNRKLGRTGLYPSYKVREKIETVKYPTYPEAEK",binding result,binds
